What was measured:
Capu(1–321) (Drosophila) = Capu(1–321) (Drosophila) (UniProt Q24120)
[1] = target: Capu-NT, the N-terminal half of Cappuccino (aa 1–466) (Drosophila) (UniProt Q24120)
[2] = target: Capu-tail–Alexa Fluor 488 (Drosophila); experiment: fluorescence polarisation
AUC = target: the molecule itself; experiment: AUC
[3] = target: T1, Capu-CT, the C-terminal half of Cappuccino (aa 467–1059) (Drosophila, UniProt Q24120 467-1059); experiment: cell-based or functional assay
T1 sequence (looked up): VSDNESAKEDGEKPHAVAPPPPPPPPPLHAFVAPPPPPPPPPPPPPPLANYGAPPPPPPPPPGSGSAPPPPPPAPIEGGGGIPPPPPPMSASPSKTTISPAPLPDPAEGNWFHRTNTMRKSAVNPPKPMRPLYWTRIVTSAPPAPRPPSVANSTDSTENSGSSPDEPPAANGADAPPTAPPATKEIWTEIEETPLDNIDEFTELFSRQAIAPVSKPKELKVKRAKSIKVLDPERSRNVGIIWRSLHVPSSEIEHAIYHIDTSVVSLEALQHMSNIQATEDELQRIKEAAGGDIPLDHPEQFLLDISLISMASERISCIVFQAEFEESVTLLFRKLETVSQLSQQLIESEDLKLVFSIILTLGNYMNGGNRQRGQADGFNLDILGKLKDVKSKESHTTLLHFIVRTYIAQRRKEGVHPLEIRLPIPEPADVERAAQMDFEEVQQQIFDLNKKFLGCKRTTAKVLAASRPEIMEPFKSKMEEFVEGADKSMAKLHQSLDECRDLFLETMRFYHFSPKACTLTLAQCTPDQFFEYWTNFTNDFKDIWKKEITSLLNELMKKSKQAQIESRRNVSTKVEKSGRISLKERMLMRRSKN

SEC-MALS = target: the molecule itself; experiment: SEC-MALS

“Capu-tail (monomeric peptide cleaved from GST–Capu-tail)” showed an EC50 of relief of Capu(1–321) inhibition of Capu-CT in the pyrene-actin assay (Capu(1–321) (Drosophila)) of 3000 nM.

Molecule “GST–Capu-tail (dimeric) (domain or fragment)” has a Kd calculated from the pyrene-actin competition assay (Vinson analysis) [1] of 167 nM.

B1: Capu-NT, the N-terminal half of Cappuccino (aa 1–466) (domain or fragment, Drosophila, UniProt Q24120 1-466, looked up)
chain: MALQLGKKLAQVLGSGAGSPLTPGTMEPCAAGSGSPLANGELFNVSKAKKVELQNLSSRFTAAVTQTPPGVTSSTPNESGVTGPAGPLGATTSSPSLETQSTVIISFKSSQTPVQSQTNSAASENVEDDTAPLPLPPPPPGFGTPTTPLLSSNVLKKVASFTVEKSSAGNNSSNPPNLCPTSDETTLLATPCSSSLTVATLPPEIAVGAAAGGVAGGAGSRRGSSYVPEKLSFAAYEKFEGQMLIKWLISTMQSNPKSSSGDANQELFNTLALQFCNNLKYVGVLKQISNEHLDCGFSPYEMYQWTHTEQPTTSLPLTPGKLDKVAAWPFSSTPSGIRALESASLASLGAGGVAGSLATIATASTASSDNQKTLQQILKKRLLNCTTLAEVHAVVNELLSSVDEPPRRPSKRCVNLTELLNASEATVYEYNKTGAEGCVKSFTDAETQTESEDCEGTCKCGQSSTK
In the case of B1, the Kd [2] is reported as 300 nM, the Kd (AUC) is reported as 245 nM and the “stoichiometry N” value (AUC) is reported as 2.

B2: Capu(1–222) (domain or fragment, Drosophila, UniProt Q24120 1-222, looked up)
chain: MALQLGKKLAQVLGSGAGSPLTPGTMEPCAAGSGSPLANGELFNVSKAKKVELQNLSSRFTAAVTQTPPGVTSSTPNESGVTGPAGPLGATTSSPSLETQSTVIISFKSSQTPVQSQTNSAASENVEDDTAPLPLPPPPPGFGTPTTPLLSSNVLKKVASFTVEKSSAGNNSSNPPNLCPTSDETTLLATPCSSSLTVATLPPEIAVGAAAGGVAGGAGSRR
B2 was tested, and the Kd [2] was 4800 nM and the “inhibition activity in the pyrene-actin assay relative to Capu-NT, at 100 nM” value [3] was ~40%.

B3: Capu(1–321) (domain or fragment, Drosophila, UniProt Q24120 1-321, looked up)
chain: MALQLGKKLAQVLGSGAGSPLTPGTMEPCAAGSGSPLANGELFNVSKAKKVELQNLSSRFTAAVTQTPPGVTSSTPNESGVTGPAGPLGATTSSPSLETQSTVIISFKSSQTPVQSQTNSAASENVEDDTAPLPLPPPPPGFGTPTTPLLSSNVLKKVASFTVEKSSAGNNSSNPPNLCPTSDETTLLATPCSSSLTVATLPPEIAVGAAAGGVAGGAGSRRGSSYVPEKLSFAAYEKFEGQMLIKWLISTMQSNPKSSSGDANQELFNTLALQFCNNLKYVGVLKQISNEHLDCGFSPYEMYQWTHTEQPTTSLPLTPGK
For B3, the “stoichiometry N” value (SEC-MALS) was 2 and the Kd [2] was 300 nM.

Reference: PMC3459857 (Molecular Biology of the Cell, 2012)
